{"source": "patent US20190178879A1", "key": {"[1]": {"target": "human CD45 on PBMCs (human) (UniProt P08575)", "sequence (P08575 26-1306)": "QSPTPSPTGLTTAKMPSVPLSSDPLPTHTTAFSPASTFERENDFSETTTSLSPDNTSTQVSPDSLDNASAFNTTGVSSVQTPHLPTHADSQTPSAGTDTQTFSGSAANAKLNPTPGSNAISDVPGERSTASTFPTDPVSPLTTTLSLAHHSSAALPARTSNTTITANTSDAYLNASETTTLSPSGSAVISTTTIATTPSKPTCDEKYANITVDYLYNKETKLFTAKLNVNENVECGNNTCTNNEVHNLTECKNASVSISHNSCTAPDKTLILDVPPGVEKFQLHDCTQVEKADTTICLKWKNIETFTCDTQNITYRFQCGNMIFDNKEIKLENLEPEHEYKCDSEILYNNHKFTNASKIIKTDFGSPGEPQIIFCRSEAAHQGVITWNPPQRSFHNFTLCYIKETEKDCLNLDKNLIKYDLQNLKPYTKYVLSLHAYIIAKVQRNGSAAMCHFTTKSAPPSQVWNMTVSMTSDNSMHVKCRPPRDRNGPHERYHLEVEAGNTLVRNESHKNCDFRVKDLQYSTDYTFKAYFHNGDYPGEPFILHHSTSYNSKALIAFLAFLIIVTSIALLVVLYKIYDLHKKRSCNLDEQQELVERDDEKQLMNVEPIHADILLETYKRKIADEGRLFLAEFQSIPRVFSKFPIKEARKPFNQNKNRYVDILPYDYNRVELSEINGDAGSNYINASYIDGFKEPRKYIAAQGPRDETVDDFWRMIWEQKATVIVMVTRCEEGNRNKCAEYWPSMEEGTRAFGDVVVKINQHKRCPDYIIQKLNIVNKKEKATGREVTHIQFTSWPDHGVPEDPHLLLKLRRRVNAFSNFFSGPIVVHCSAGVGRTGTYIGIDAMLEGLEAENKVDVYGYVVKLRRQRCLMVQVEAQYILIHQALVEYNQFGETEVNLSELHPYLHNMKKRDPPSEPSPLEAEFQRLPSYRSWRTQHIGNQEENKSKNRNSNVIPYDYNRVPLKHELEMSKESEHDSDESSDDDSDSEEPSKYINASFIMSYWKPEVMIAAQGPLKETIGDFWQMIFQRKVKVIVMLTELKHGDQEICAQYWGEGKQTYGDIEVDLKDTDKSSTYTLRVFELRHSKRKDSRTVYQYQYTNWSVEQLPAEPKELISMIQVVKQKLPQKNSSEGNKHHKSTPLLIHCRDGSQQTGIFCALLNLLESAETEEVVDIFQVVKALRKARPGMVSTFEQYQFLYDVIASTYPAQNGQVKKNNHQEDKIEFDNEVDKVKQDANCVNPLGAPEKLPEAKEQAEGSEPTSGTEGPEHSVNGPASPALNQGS", "experiment": "flow cytometry on human PBMCs, detected with anti-PEG/HL647 label"}, "[2]": {"target": "human CD3 cell surface antigen on PBMCs (human) (UniProt P07766)", "sequence (P07766 23-207)": "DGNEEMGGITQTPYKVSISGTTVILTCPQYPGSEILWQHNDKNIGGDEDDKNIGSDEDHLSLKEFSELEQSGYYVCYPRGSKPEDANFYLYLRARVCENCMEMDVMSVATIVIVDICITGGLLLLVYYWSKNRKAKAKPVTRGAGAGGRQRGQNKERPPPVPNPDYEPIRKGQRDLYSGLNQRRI", "experiment": "flow cytometry on human PBMCs, detected with anti-PEG/HL647 label"}, "[3]": {"target": "human CD3 cell surface antigen on PBMCs (human) (UniProt P07766)", "experiment": "flow cytometry on human PBMCs, detected with rat anti-mouse PE"}, "[4]": {"target": "anti-pHIS antibody (clone J099B12, Biolegend), fluorescently labeled with AlexaFluor 488", "experiment": "flow cytometry competition, release format: soluble pHIS added after anti-pHIS antibody was bound to pHIS-conjugated particles"}, "[5]": {"target": "anti-pHIS antibody (clone J099B12, Biolegend), fluorescently labeled with AlexaFluor 488", "experiment": "flow cytometry competition, inhibition format: soluble pHIS preincubated with anti-pHIS antibody before pHIS-conjugated particles"}, "[6]": {"target": "anti-pHIS/CD3 TAC (tetrameric antibody complex of anti-pHIS antibody and anti-CD3 antibody)", "experiment": "cell-based or functional assay"}}}
{"substance": "CD45 antibody (clone MEM-28) PEGylated with 30 kDa PEG", "values": [{"measurement": "percent of cells with a positive signal", "setting": "[1]", "value": "> 96", "unit": "%"}]}
{"substance": "CD3 antibody (clone UCHT1) PEGylated with 30 kDa PEG", "values": [{"measurement": "percent of cells with a positive signal", "setting": "[2]", "value": 83.4, "unit": "%"}]}
{"substance": "CD3 antibody (clone UCHT1)", "values": [{"measurement": "percent of lymphocytes with a CD3+ signal", "setting": "[3]", "value": 87.8, "unit": "%"}]}
{"substance": "soluble pHIS (polyhistidine) peptide, 0.84 kDa", "values": [{"measurement": "IC50", "setting": "[4]", "value": 237, "unit": "µM"}, {"measurement": "IC50", "setting": "[5]", "value": 1.9, "unit": "µM"}, {"measurement": "% Rel (release efficiency), average, n = 2", "setting": "[6]", "value": 69.3, "unit": "%"}, {"measurement": "particle release efficiency", "setting": "[6]", "value": 72, "unit": "%"}]}
